Reference: publication PMC2683983 (Molecular pharmaceutics, 2009)
Numbered stars: 1 amine (or outer) side, 2 acyl side, 3 side chain; on linkers, the order of the positions; unused ones are H or OH. Bridge positions count the residues as written; N and C are the ends. Peptide text beside a SMILES is read from it. * marks the point of attachment. Doxorubicin(3'-N) = COc1cccc2c1C(=O)c1c(O)c3c(c(O)c1C2=O)C[C@@](O)(C(=O)CO)C[C@@H]3O[C@H]1C[C@H](N*)[C@H](O)[C@H](C)O1; Suc = O=C(CCC(=O)[*:2])[*:1]; AEEEA = NCCOCCOCCOCC(=O)O

Key:
[1] = pH 7.4; cited from earlier work
HL-60 cells = conditions: HL-60, 10 μM, 1 h; for intracellular fluorescence distribution / uptake at 4 °C / intracellular fluorescence distribution at 37 °C: RPMI 1640, epifluorescence, rhodamine filter; for entry mechanism into cells: 37 °C compared with 4 °C
[2] = test system: ICAM-1/LFA-1-mediated heterotypic T-cell adhesion; conditions: cited from earlier work
I-domain of LFA-1 = conditions: cited from earlier work

Row | Molecule | distribution ratio [1] | intracellular fluorescence distribution / uptake at 4 °C (HL-60 cells) | intracellular fluorescence distribution at 37 °C (HL-60 cells) | entry mechanism into cells (HL-60 cells) | also measured
1 | COc1cccc2c1C(=O)c1c(O)c3c(c(O)c1C2=O)C[C@@](O)(C(=O)CO)C[C@@H]3O[C@H]1C[C@H](N)[C@H](O)[C@H](C)O1 [DOX, Doxorubicin, reference compound] | 1.2 | uptake of DOX was suppressed | localized inside the nucleus |  | 
2 | COc1cccc2c1C(=O)c1c(O)c3c(c(O)c1C2=O)C[C@@](O)(C(=O)CO)C[C@@H]3O[C@H]1C[C@H](NC(=O)CCC(=O)NCCOCCOCCOCC(=O)N[C@H]2CSSC[C@@H](C(=O)O)NC(=O)[C@H](C(C)C)NC(=O)[C@H](CO)NC(=O)CNC(=O)CNC(=O)[C@H](CCCNC(=N)N)NC(=O)[C@@H]3CCCN3C2=O)[C@H](O)[C@H](C)O1 [DOX-PEGcIBR7] ({Doxorubicin(3'-N)-Suc-AEEEA}-CPRGGSVC-OH; disulfide 1-8) |  | diffuse fluorescence of the conjugates inside the cell cytosol | diffuse fluorescence distribution pattern in the cellular cytoplasm | passive diffusion | 
3 | COc1cccc2c1C(=O)c1c(O)c3c(c(O)c1C2=O)C[C@@](O)(C(=O)CO)C[C@@H]3O[C@H]1C[C@H](NC(=O)CCC(=O)N[C@H]2CSSC[C@@H](C(=O)O)NC(=O)[C@H](C(C)C)NC(=O)[C@H](CO)NC(=O)CNC(=O)CNC(=O)[C@H](CCCNC(=N)N)NC(=O)[C@@H]3CCCN3C2=O)[C@H](O)[C@H](C)O1 [DOX-cIBR7] ({Doxorubicin(3'-N)-Suc}-CPRGGSVC-OH; disulfide 1-8) |  | diffuse fluorescence of the conjugates inside the cell cytosol | diffuse fluorescence distribution pattern in the cellular cytoplasm | passive diffusion | 
4 | CNGRC [DOX-CNGRC] | 5.3 |  |  |  | 
5 | cyclo(1,6)PRGGKV (head to tail) |  |  |  |  | peptide activity after introduction of Lys5 in place of Ser5 [2]: lower peptide activity
6 | cyclo(1,8)CPRGGSVC (disulfide) [cIBR7] |  |  |  |  | binding affinity to the isolated I-domain compared with cIBR (I-domain of LFA-1): higher; activity to inhibit heterotypic T-cell adhesion compared with parent cIBR [2]: better activity
